{"source": "patent CN108948205A", "about": "(BEIJING JINDAI BIOTECHNOLOGY CO LTD, dated 2018)", "binders": {"B1": {"name": "10G5-1单克隆抗体 (anti-IDH1 R132H monoclonal antibody secreted by hybridoma 10G5-1, CGMCC No.15783) (antibody, V domains shown)", "VH": "QVQLQQPGTELVKPGASVHLSCKASGYTFTTYWMHWVKQRPGQGLEWIGDINPSNGETYYNEKFRNKATLTVDKSSRTAYMHLSSLSSEDSAVYYCARGFKDYWGQGTTLTVSS", "VL": "DVLMTQTPLSLPVSLGDQASISCRSSQTILYSDGVTYLEWYLQKPGQSPKLLIYKVSSRFSGVPDRFSGSGSGTDFTLKISRVVAEDLGIYYCFQGSHVPFTFGSGTKLEIK", "notes": "Mouse (BALB/c) hybridoma antibody purified on protein A; also called 10G5-1抗体; 1OG5-1抗体"}}, "key": {"[1]": {"biological_target": "T1, IDH1 R132H突变抗原多肽 (编号 U6184CB080-D)", "T1 sequence (peptide)": "KPIIIGHHAYGDQYC", "test": "SPR, Biacore 8k, peptide on CM5 chip; reference H09"}, "[2]": {"biological_target": "T2, IDH1 R132H (mutant IDH1 in glioma tissue sections) (UniProt O75874 2-414)", "T2 construct": "Endogenous protein in patients' glioma paraffin sections; also called IDH1突变; IDH1 R132H突变", "T2 sequence (O75874 2-414 R132H limits assumed)": "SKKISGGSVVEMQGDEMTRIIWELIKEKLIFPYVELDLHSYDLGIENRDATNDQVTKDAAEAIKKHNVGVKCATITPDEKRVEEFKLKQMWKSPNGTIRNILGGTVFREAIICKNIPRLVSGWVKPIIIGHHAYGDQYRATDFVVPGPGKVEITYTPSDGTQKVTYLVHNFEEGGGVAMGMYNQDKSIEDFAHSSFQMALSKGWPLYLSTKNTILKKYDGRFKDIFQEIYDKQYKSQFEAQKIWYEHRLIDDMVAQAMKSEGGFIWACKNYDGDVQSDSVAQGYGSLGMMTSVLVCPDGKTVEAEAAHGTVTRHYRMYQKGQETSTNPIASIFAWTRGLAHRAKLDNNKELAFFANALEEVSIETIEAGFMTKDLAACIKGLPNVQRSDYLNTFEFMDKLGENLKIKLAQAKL", "test": "immunohistochemistry on glioma paraffin sections"}, "[3]": {"biological_target": "T3, IDH1野生型 (wild-type IDH1 in glioma tissue sections) (UniProt O75874 2-414)", "T3 construct": "Endogenous protein in patients' glioma paraffin sections; also called IDH1 R132H焦磷酸测序野生型样本; 不携带IDH1 R132H突变的胶质瘤样本", "T3 sequence (O75874 2-414 limits assumed)": "as the sequence (O75874 2-414 R132H limits assumed) above, with H131R counted along it", "test": "immunohistochemistry on glioma paraffin sections"}}, "data": [{"binder": "B1", "values": [{"measurement": "fold lower 亲和力平衡常数 (KD) against H09", "setting": "[1]", "value": 10, "unit": "fold"}, {"measurement": "binding result", "setting": "[2]", "value": "binds"}, {"measurement": "binding result", "setting": "[3]", "value": "no binding"}]}]}
